The text below walks through data of patent publication US20180002431A1, “FAS AND DRs ARE NOVEL MOLECULAR TARGETS OF SENESCENT CELLS” (BioVentures, LLC, priority 2015, published 2018).

The test system of test [1] is senescent WI-38 cells induced by IR (IR-SC). Briefly: Apoptosis by Annexin V-FITC staining and flow cytometry, WI-38 IR-SC. Type of test: cell-based, human. As to the method: FIG. 2A, FIG. 2B, FIG. 2C, FIG. 2D, FIG. 2E, FIG. 2F, FIG. 2G, FIG. 2H, FIG. 2I, FIG. 2J, FIG. 2K, FIG. 2L, FIG. 2M and FIG. 2N depict graphs showing that FasAb and Trail selectively kill senescent cells by induction of apoptosis. (FIG. 2A, FIG. 2B, FIG. 2C, FIG. 2D) Non-senescent cells (NC) and senescent WI-38 cells induced by IR (IR-SC) were incubated with different concentrations of FasAb (Clone CH11, Cat #05-201, Millipore, Mass., USA) or Trail (Cat #310-04, Peprotech, N.J., USA) for 3 days to count number of viable cells. […] (FIG. 2E, FIG. 2F) WI-38 NC and IR-SC were incubated with vehicle (Veh), FasAb (10 ng/ml) or Trail (12.5 ng/ml) for 3 days, and apoptosis in these cells was determined by Annexin V-FITC staining and flow cytometry. […] (FIG. 2G, FIG. 2H) NCs and IR-SCs were incubated with vehicle (Veh), FasAb (10 ng/ml) or Trail (12.5 ng/ml) for 3 days after the cells were preincubated with vehicle (Veh) or 10 μM Q-VD-OPh hydrate (QVD) for 2 hours, and apoptosis in these cells was determined by Annexin V-FITC staining and flow cytometry. […]
WI-38 NC and IR-SC were incubated with vehicle (Veh), FasAb (10 ng/ml) or TRAIL (12.5 ng/ml) for 3 days, and apoptosis in these cells was determined by Annexin V-FITC staining and flow cytometry. […]

The test system is the same in test [2]. Briefly: Viable cell count, senescent WI-38 cells induced by IR. Type of test: cell-based, human. As for the experimental part:
FIG. 2A, FIG. 2B, FIG. 2C, FIG. 2D, FIG. 2E, FIG. 2F, FIG. 2G, FIG. 2H, FIG. 2I, FIG. 2J, FIG. 2K, FIG. 2L, FIG. 2M and FIG. 2N depict graphs showing that FasAb and Trail selectively kill senescent cells by induction of apoptosis. (FIG. 2A, FIG. 2B, FIG. 2C, FIG. 2D) Non-senescent cells (NC) and senescent WI-38 cells induced by IR (IR-SC) were incubated with different concentrations of FasAb (Clone CH11, Cat #05-201, Millipore, Mass., USA) or Trail (Cat #310-04, Peprotech, N.J., USA) for 3 days to count number of viable cells. The data presented are means±SD of viable cells as a percent of control without FasAb or Trail treatment from 3 independent experiments. **, p<0.01; ***, p<0.001; and ****, p<0.0001, vs. without FasAb or Trail. (FIG. 2E, FIG. 2F) WI-38 NC and IR-SC were incubated with vehicle (Veh), FasAb (10 ng/ml) or Trail (12.5 ng/ml) for 3 days, and apoptosis in these cells was determined by Annexin V-FITC staining and flow cytometry. […] (FIG. 2G, FIG. 2H) NCs and IR-SCs were incubated with vehicle (Veh), FasAb (10 ng/ml) or Trail (12.5 ng/ml) for 3 days after the cells were preincubated with vehicle (Veh) or 10 μM Q-VD-OPh hydrate (QVD) for 2 hours, and apoptosis in these cells was determined by Annexin V-FITC staining and flow cytometry. […]

In test [3] the test system is senescent IMR90 cells induced by IR (IR-SC). The test can be described thus: Viable cell count, senescent IMR90 cells induced by IR. Type of test: cell-based. The conditions noted are these: different concentrations, 3 days (FIG. 2K-2N).

For the molecule `CC(C)[C@H](NC(=O)c1ccc2ccccc2n1)C(=O)N[C@@H](CC(=O)O)C(=O)COc1c(F)cccc1F` [QVD, Q-VD-OPh hydrate, reference compound], the “effect of QVD on apoptosis induced by FasAb and TRAIL” value in test [1] (10 μM QVD preincubated 2 hours, then FasAb 10 ng/ml or TRAIL 12.5 ng/ml for 3 days (FIG. 2G, 2H)) was “blocked the ability of FasAb and TRAIL to induce apoptosis”. In test [2] (IR-SC, 10 μM QVD preincubated 2 hours, then FasAb 10 ng/ml or TRAIL 12.5 ng/ml for 3 days (FIG. 2I, 2J)), the “effect of QVD on the viable cell reduction by FasAb and TRAIL” value is “blocks the activity observed with FasAb and TRAIL”.

B1: TRAIL: recombinant TNF-related apoptosis-inducing ligand, Cat #310-04, Peprotech (protein, UniProt P50591 1-281, looked up)
Tumor necrosis factor ligand …: MAMMEVQGGPSLGQTCVLIVIFTVLLQSLCVAVTYVYFTNELKQMQDKYSKSGIACFLKEDDSYWDPNDEESMNSPCWQVKWQLRQLVRKMILRTSEETISTVQEKQQNISPLVRERGPQRVAAHITGTRGRSNTLSSPNSKNEKALGRKINSWESSRSGHSFLSNLHLRNGELVIHEKGFYYIYSQTYFRFQEEIKENTKNDKQMVQYIYKYTSYPDPILLMKSARNSCWSKDAEYGLYSIYQGGIFELKENDRIFVSVTNEHLIDMDHEASFFGAFLVG
With B1, the “apoptosis (Annexin V-FITC+ cells)” value in test [1] (WI-38 IR-SC, FasAb 10 ng/ml or TRAIL 12.5 ng/ml, 3 days, relative to untreated or non-senescent cells (FIG. 2E, 2F)) is reported as “significantly increased”. Also, the “number of viable cells” value in test [2] (WI-38 IR-SC vs NC, different concentrations, 3 days (FIG. 2A-2D)) is “significantly reduced the number of viable cells relative to NC”. Besides, the “number of viable cells (reported as apoptosis induction)” value in test [3] is “induced apoptosis”.
